From patent publication US20260146093A1 (DREN BIO MANAGEMENT, published 2026)
Read-outs that look alike come from different tables or passages of the source.

T1: human Dectin-1 isoform A on HEK-Blue hDectin-1a cells (human, UniProt Q9BXN2 1-247)
T1 sequence: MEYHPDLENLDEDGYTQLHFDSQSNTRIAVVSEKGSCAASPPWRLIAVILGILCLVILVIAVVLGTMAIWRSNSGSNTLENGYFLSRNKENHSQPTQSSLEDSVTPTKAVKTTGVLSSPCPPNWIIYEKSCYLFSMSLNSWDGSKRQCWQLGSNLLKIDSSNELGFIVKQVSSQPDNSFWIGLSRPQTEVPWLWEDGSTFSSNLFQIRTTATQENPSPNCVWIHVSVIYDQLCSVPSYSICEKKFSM

T2: human Trop-2 expressed on cells (A-431, NCI-N87, SKBR3, CHO-K1-hTrop2) (human, UniProt P09758 27-323)
T2 sequence: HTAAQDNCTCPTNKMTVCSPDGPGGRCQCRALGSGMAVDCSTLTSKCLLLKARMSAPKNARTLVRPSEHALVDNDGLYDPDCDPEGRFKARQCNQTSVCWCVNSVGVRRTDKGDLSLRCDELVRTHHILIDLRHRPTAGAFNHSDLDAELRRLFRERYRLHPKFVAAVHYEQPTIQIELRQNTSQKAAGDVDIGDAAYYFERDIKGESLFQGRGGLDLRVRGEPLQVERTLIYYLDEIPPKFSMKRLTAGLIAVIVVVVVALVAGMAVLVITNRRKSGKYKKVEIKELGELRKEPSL

B1: Dectin-1 2M24.131 x Trop-2 clone A hIgG1 (bispecific antibody)
anti-Dectin-1 scFv-Fc arm: QVQLVQSGAEVKKPGASVKVSCKASGYTFTDYYMHWVRQAPGQGLEWMGWINPNEGDTNYAQKFEGRITMTRDTSISTAYMELSRLRSDDTAVYYCARNTGAYSFGYWGCGTLVTVSSGGGGSGGGGSGGGGSGGGGSDIQMTQSPSSVSASVGDRVTITCRASQGISSWLAWYQQKPGKCPKLLIYGASDLQSGVPSRFSGSGSGTDFTLTISSLQPEDFATYYCQQAYGFPFTFGPGTKVDIKEPK
anti-Trop-2 heavy chain: QVQLQQSGSELKKPGASVKVSCKASGYTFTNYGMNWVKQAPGQGLKWMGWINTYTGEPTYTDDFKGRFAFSLDTSVSTAYLQISSLKADDTAVYFCARGGFGSSYWYFDVWGQGSLVTVSS
anti-Trop-2 light chain: DIQLTQSPSSLSASVGDRVSITCKASQDVSIAVAWYQQKPGKAPKLLIYSASYRYTGVPDRFSGSGSGTDFTLTISSLQPEDFAVYYCQQHYITPLTFGAGTKVEIK
notes: member of group m8; also called 2M24.131xTrop-2 clone A hG1; scFv-format anti-Dectin-1 x anti-Trop-2 bispecific, clone A
B2: Dectin-1 2M24.131 x Trop-2 clone B hIgG1 (bispecific antibody)
anti-Dectin-1 scFv-Fc arm: QVQLVQSGAEVKKPGASVKVSCKASGYTFTDYYMHWVRQAPGQGLEWMGWINPNEGDTNYAQKFEGRITMTRDTSISTAYMELSRLRSDDTAVYYCARNTGAYSFGYWGCGTLVTVSSGGGGSGGGGSGGGGSGGGGSDIQMTQSPSSVSASVGDRVTITCRASQGISSWLAWYQQKPGKCPKLLIYGASDLQSGVPSRFSGSGSGTDFTLTISSLQPEDFATYYCQQAYGFPFTFGPGTKVDIKEPK
anti-Trop-2 heavy chain: QVQLQESGPGLVKPSGTLSLTCAVSGGSISSSNWWSWVRQPPGKGLEWIGEIYHDGSTDYFPSLKSRVTISVDKSKNQFSLKLSSVTAADTAVYYCARDNWGFDYWGQGTLVTVSS
anti-Trop-2 light chain: DIVLTQSPGTLSLSPGERATLSCRASQSVSSSYLAWYQQKPGQAPRLLISGASSRATGIPDRFSGSGSGTDFTLTISRLEPEDFAVYYCQQYGSSHRTFGQGTKVEIK
notes: member of group m8; also called 2M24.131xTrop-2 clone B hG1; scFv-format anti-Dectin-1 x anti-Trop-2 bispecific, clone B
B3: Dectin-1 2M24.131 x Trop-2 clone C hIgG1 (bispecific antibody)
anti-Dectin-1 scFv-Fc arm: QVQLVQSGAEVKKPGASVKVSCKASGYTFTDYYMHWVRQAPGQGLEWMGWINPNEGDTNYAQKFEGRITMTRDTSISTAYMELSRLRSDDTAVYYCARNTGAYSFGYWGCGTLVTVSSGGGGSGGGGSGGGGSGGGGSDIQMTQSPSSVSASVGDRVTITCRASQGISSWLAWYQQKPGKCPKLLIYGASDLQSGVPSRFSGSGSGTDFTLTISSLQPEDFATYYCQQAYGFPFTFGPGTKVDIKEPK
anti-Trop-2 heavy chain: QVQLVQSGSELKKPGASVKLSCKASGYTFTSYGMNWVRQAPGQGLEWMGWINTNTGNPTYAQGFTGRFVFSLDTSVSTAYLQISSLKAEDTAVYYCARGYNWNDGDFDYWGQGTLVTVSS
anti-Trop-2 light chain: AIQMTQSPSSLSPSVGDRVTITCRASQGIRNDLGWYQQKPGKAPKLLIFAASSLQSGVPSRFSGSGSGTDFTLTISNLQPEDFATYYCLQNYNYPLTFGGGTKVEIK
notes: member of group m8; also called 2M24.131xTrop-2 clone C hG1; scFv-format anti-Dectin-1 x anti-Trop-2 bispecific, clone C
B4: Dectin-1 2M24.124 x Trop-2 clone C hIgG1 (bispecific antibody)
anti-Dectin-1 heavy chain: QVQLVQSGAEVKKPGASVKVSCKASGYTFTDYYMHWVRQAPGQGLEWMGWINPNEGDTNYAQKFEGRITMTRDTSISTAYMELSRLRSDDTAVYYCARNTGAYSFGYWGCGTLVTVSS
anti-Dectin-1 light chain: DIQMTQSPSSVSASVGDRVTITCRASQGISSWLAWYQQKPGKCPKLLIYGASDLQSGVPSRFSGSGSGTDFTLTISSLQPEDFATYYCQQAYGFPFTFGPGTKVDIK
anti-Trop-2 heavy chain: QVQLVQSGSELKKPGASVKLSCKASGYTFTSYGMNWVRQAPGQGLEWMGWINTNTGNPTYAQGFTGRFVFSLDTSVSTAYLQISSLKAEDTAVYYCARGYNWNDGDFDYWGQGTLVTVSS
anti-Trop-2 light chain: AIQMTQSPSSLSPSVGDRVTITCRASQGIRNDLGWYQQKPGKAPKLLIFAASSLQSGVPSRFSGSGSGTDFTLTISNLQPEDFATYYCLQNYNYPLTFGGGTKVEIK
notes: member of group m9; also called 2M24.124xTrop-2 clone C hG1; disulfide-engineered Fab-format bispecific, clone C

How the values were obtained:
[1] = molecular target: T1, human Dectin-1 isoform A on HEK-Blue …; experiment: cell-based or functional assay
[2] = molecular target: human Dectin-1 on HEK cells expressing hDectin-1 (human) (UniProt Q9BXN2); experiment: flow cytometry on HEK cells expressing hDectin-1 (sheet title: Binding to hDec1 on Hek)
[3] = molecular target: T2, human Trop-2 expressed on cells (A-431, …); experiment: flow cytometry on A431 cells expressing hTrop-2
[4] = molecular target: T1, human Dectin-1 isoform A on HEK-Blue …; experiment: cell-based or functional assay; remark: listed apart in the source
[5] = molecular target: T2, human Trop-2 expressed on cells (A-431, …); experiment: flow cytometry on CHO-K1 cells expressing hTrop-2 (sheet title: Binding to Chok1 hTrop2)

Binder | EC50 of SEAP secretion by the hDectin-1 reporter cells (hDec1 Reporter Assay; the Trop-2-expressing cell line is not named) [1] [nM] | EC50 (read off the curve) [2] [nM] | binding result [3] | EC50 of SEAP secretion by the hDectin-1 reporter cells (hDec1 Reporter Assay; the Trop-2-expressing cell line is not named) [4] [nM] | EC50 (read off the curve) [5] [nM]
B1 | 1.46 | 4 | binds |  | 
B2 | 0.91 | 3 | binds |  | 
B3 | 1.49 | 3 | binds |  | 
B4 |  |  |  | 0.69 | ~9
